Consider nine molecules from publication PMC9248843, “Structural and biophysical studies of new L-asparaginase variants: lessons from random mutagenesis of the prototypic Escherichia coli Ntn-amidohydrolase” (Acta Crystallographica. Section D, Structural Biology, 2022).

Data set [1] deals with the molecule itself. As to the kind of experiment: SEC; SEC profiles of Supplementary Fig. S4; before biophysical measurements proteins were run on Superdex 75 10/300 GL in 20 mM phosphate buffer pH 7.5. For orientation: SEC sorts molecules by how far they enter the pores of the column.
Data set [2] concerns the molecule itself. The data set is described as follows: crystal structure; hanging-drop vapor diffusion at 20°C; 20–30% PEG 4000 or PEG 6000, 0.2 M MgCl2, 100 mM Tris–HCl pH 8.5; protein 10–15 mg/ml; space group P212121.
In data set [3] the target is T1, EcAIII α subunit (∼20 kDa) (Escherichia coli, UniProt P37595 1-178).
T1 construct: EcAIII of Escherichia coli, α subunit: cut product of the precursor up to the scissile bond Gly178-Thr179; the linker is partly degraded, residues 158-178 are not visible in the structures; also called subunit α; source: E. coli BL21 Gold, purified (DEAE-Sepharose, SEC); formed by autocleavage of the precursor
T1 sequence (looked up): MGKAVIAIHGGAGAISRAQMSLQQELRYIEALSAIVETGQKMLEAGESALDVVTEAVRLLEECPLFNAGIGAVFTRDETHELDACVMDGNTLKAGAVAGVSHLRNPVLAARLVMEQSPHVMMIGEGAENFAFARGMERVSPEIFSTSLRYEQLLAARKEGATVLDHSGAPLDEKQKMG
The data set is described as above. Particulars: both partners purified.

B1: EcAIII variant RDM1-43, unprocessed immature precursor (enzyme, Escherichia coli, UniProt P37595 1-321, looked up)
chain: MGKAVIAIHGGAGAISRAQMSLQQELRYIEALSAIVETGQKMLEAGESALDVVTEAVRLLEECPLFNAGIGAVFTRDETHELDACVMDGNTLKAGAVAGVSHLRNPVLAARLVMEQSPHVMMIGEGAENFAFARGMERVSPEIFSTSLRYEQLLAARKEGATVLDHSGAPLDEKQKMGTVGAVALDLDGNLAAATSTGGMTNKLPVGVGSSPLVGAGCYANNASVAVSCTGTGEVFIRALAAYDIAALMDYGGLSLAEACERVVMEKLPALGGSGGLIAIDHEGNVALPFNTEGMYRAWGYAGDTPTTGIYREKGDTVATQ
notes: EcAIII of Escherichia coli, uncleaved immature precursor (α and β on one chain, linker intact), with the substitutions of RDM1-43 (Ser211 kept); No ability to process into α/β subunits; EcAIII gene in pET-11d; source: E. coli BL21 Gold, purified (DEAE-Sepharose, SEC)
For B1, the binding result in data set [1] is recorded as “binds”.

B2: EcAIII variant RDM1-46, unprocessed immature precursor (enzyme, Escherichia coli, UniProt P37595 1-321, looked up)
chain: MGKAVIAIHGGAGAISRAQMSLQQELRYIEALSAIVETGQKMLEAGESALDVVTEAVRLLEECPLFNAGIGAVFTRDETHELDACVMDGNTLKAGAVAGVSHLRNPVLAARLVMEQSPHVMMIGEGAENFAFARGMERVSPEIFSTSLRYEQLLAARKEGATVLDHSGAPLDEKQKMGTVGAVALDLDGNLAAATSTGGMTNKLPLDVGLSPLVGAGCYANNASVAVSCTGTGEVFIRALAAYDIAALMDYGGLSLAEACERVVMEKLPALGGSGGLIAIDHEGNVALPFNTEGMYRAWGYAGDTPTTGIYREKGDTVATQ
notes: EcAIII of Escherichia coli, uncleaved immature precursor (α and β on one chain, linker intact), with the substitutions of RDM1-46 (Ser211 kept); No ability to process into α/β subunits; EcAIII gene in pET-11d; source: E. coli BL21 Gold, purified (DEAE-Sepharose, SEC)
Turning to B2, the binding result in data set [1] was “binds”.

B3: wild-type EcAIII, mature (αβ)2 heterotetramer (class 2 L-asparaginase of Escherichia coli) (complex)
chain 1: MGKAVIAIHGGAGAISRAQMSLQQELRYIEALSAIVETGQKMLEAGESALDVVTEAVRLLEECPLFNAGIGAVFTRDETHELDACVMDGNTLKAGAVAGVSHLRNPVLAARLVMEQSPHVMMIGEGAENFAFARGMERVSPEIFSTSLRYEQLLAARKEGATVLDHSGAPLDEKQKMG
chain 2: TVGAVALDLDGNLAAATSTGGMTNKLPGRVGDSPLVGAGCYANNASVAVSCTGTGEVFIRALAAYDIAALMDYGGLSLAEACERVVMEKLPALGGSGGLIAIDHEGNVALPFNTEGMYRAWGYAGDTPTTGIYREKGDTVATQ
notes: EcAIII of Escherichia coli, α subunit: cut product of the precursor up to the scissile bond Gly178-Thr179; the linker is partly degraded, residues 158-178 are not visible in the structures; EcAIII of Escherichia coli, β subunit: cut product of the precursor beginning at the nucleophilic Thr179; Gene in pET-11d; no tag is mentioned; Dimer of two αβ heterodimers formed by autocleavage of the …
Take B3: in data set [2], the binding result was “binds”.

B4: EcAIII variant RDM1-38, mature (processed into α/β subunits) (complex, Escherichia coli)
chain 1: MGKAVIAIHGGAGAISRAQMSLQQELRYIEALSAIVETGQKMLEAGESALDVVTEAVRLLEECPLFNAGIGAVFTRDETHELDACVMDGNTLKAGAVAGVSHLRNPVLAARLVMEQSPHVMMIGEGAENFAFARGMERVSPEIFSTSLRYEQLLAARKEGATVLDHSGAPLDEKQKMG
chain 2: TVGAVALDLDGNLAAATSTGGMTNKLPGCVGSVPLVGAGCYANNASVAVSCTGTGEVFIRALAAYDIAALMDYGGLSLAEACERVVMEKLPALGGSGGLIAIDHEGNVALPFNTEGMYRAWGYAGDTPTTGIYREKGDTVATQ
notes: EcAIII of Escherichia coli, α subunit: cut product up to the scissile bond Gly178-Thr179; residues 158-178 not visible in the structure; EcAIII of Escherichia coli, β subunit beginning at Thr179, with the substitutions of RDM1-38; source: E. coli BL21 Gold, purified (DEAE-Sepharose, SEC); copies: 2 + 2
In the case of B4, the binding result in data set [2] is recorded as “binds”.

B5: EcAIII β subunit (∼15 kDa), wild type (domain or fragment, Escherichia coli, UniProt P37595 179-321, looked up)
chain: TVGAVALDLDGNLAAATSTGGMTNKLPGRVGDSPLVGAGCYANNASVAVSCTGTGEVFIRALAAYDIAALMDYGGLSLAEACERVVMEKLPALGGSGGLIAIDHEGNVALPFNTEGMYRAWGYAGDTPTTGIYREKGDTVATQ
notes: EcAIII of Escherichia coli, β subunit: cut product of the precursor beginning at the nucleophilic Thr179; also called subunit β; source: E. coli BL21 Gold, purified (DEAE-Sepharose, SEC); formed by autocleavage of the precursor
With B5, in data set [3], the binding result is reported as “binds”.

B6: EcAIII variant RDM1-12, mature (processed into α/β subunits) (complex, Escherichia coli)
chain 1: MGKAVIAIHGGAGAISRAQMSLQQELRYIEALSAIVETGQKMLEAGESALDVVTEAVRLLEECPLFNAGIGAVFTRDETHELDACVMDGNTLKAGAVAGVSHLRNPVLAARLVMEQSPHVMMIGEGAENFAFARGMERVSPEIFSTSLRYEQLLAARKEGATVLDHSGAPLDEKQKMG
chain 2: TVGAVALDLDGNLAAATSTGGMTNKLPCTVGAAPLVGAGCYANNASVAVSCTGTGEVFIRALAAYDIAALMDYGGLSLAEACERVVMEKLPALGGSGGLIAIDHEGNVALPFNTEGMYRAWGYAGDTPTTGIYREKGDTVATQ
notes: EcAIII of Escherichia coli, α subunit: cut product up to the scissile bond Gly178-Thr179; residues 158-178 not visible in the structure; EcAIII of Escherichia coli, β subunit beginning at Thr179, with the substitutions of RDM1-12; source: E. coli BL21 Gold, purified (DEAE-Sepharose, SEC); copies: 2 + 2
As to B6, the binding result in data set [2] was “binds”.

B7: EcAIII variant RDM1-37, mature (processed into α/β subunits) (complex, Escherichia coli)
chain 1: MGKAVIAIHGGAGAISRAQMSLQQELRYIEALSAIVETGQKMLEAGESALDVVTEAVRLLEECPLFNAGIGAVFTRDETHELDACVMDGNTLKAGAVAGVSHLRNPVLAARLVMEQSPHVMMIGEGAENFAFARGMERVSPEIFSTSLRYEQLLAARKEGATVLDHSGAPLDEKQKMG
chain 2: TVGAVALDLDGNLAAATSTGGMTNKLPSTVGSSPLVGAGCYANNASVAVSCTGTGEVFIRALAAYDIAALMDYGGLSLAEACERVVMEKLPALGGSGGLIAIDHEGNVALPFNTEGMYRAWGYAGDTPTTGIYREKGDTVATQ
notes: EcAIII of Escherichia coli, α subunit: cut product up to the scissile bond Gly178-Thr179; residues 158-178 not visible in the structure; EcAIII of Escherichia coli, β subunit beginning at Thr179, with the substitutions of RDM1-37 (Ser211 kept); source: E. coli BL21 Gold, purified (DEAE-Sepharose, SEC); copies: 2 + 2
On to B7, for which the binding result in data set [2] was “binds”.

B8: EcAIII variant RDM1-29, mature (processed into α/β subunits) (complex, Escherichia coli)
chain 1: MGKAVIAIHGGAGAISRAQMSLQQELRYIEALSAIVETGQKMLEAGESALDVVTEAVRLLEECPLFNAGIGAVFTRDETHELDACVMDGNTLKAGAVAGVSHLRNPVLAARLVMEQSPHVMMIGEGAENFAFARGMERVSPEIFSTSLRYEQLLAARKEGATVLDHSGAPLDEKQKMG
chain 2: TVGAVALDLDGNLAAATSTGGMTNKLPCSVGLVPLVGAGCYANNASVAVSCTGTGEVFIRALAAYDIAALMDYGGLSLAEACERVVMEKLPALGGSGGLIAIDHEGNVALPFNTEGMYRAWGYAGDTPTTGIYREKGDTVATQ
notes: EcAIII of Escherichia coli, α subunit: cut product up to the scissile bond Gly178-Thr179; residues 158-178 not visible in the structure; EcAIII of Escherichia coli, β subunit beginning at Thr179, with the substitutions of RDM1-29; source: E. coli BL21 Gold, purified (DEAE-Sepharose, SEC); copies: 2 + 2
On to B8, for which the binding result in data set [2] was “binds”.

B9: EcAIII variant RDM1-24, mature (processed into α/β subunits) (complex, Escherichia coli)
chain 1: MGKAVIAIHGGAGAISRAQMSLQQELRYIEALSAIVETGQKMLEAGESALDVVTEAVRLLEECPLFNAGIGAVFTRDETHELDACVMDGNTLKAGAVAGVSHLRNPVLAARLVMEQSPHVMMIGEGAENFAFARGMERVSPEIFSTSLRYEQLLAARKEGATVLDHSGAPLDEKQKMG
chain 2: TVGAVALDLDGNLAAATSTGGMTNKLPGAVGSTPLVGAGCYANNASVAVSCTGTGEVFIRALAAYDIAALMDYGGLSLAEACERVVMEKLPALGGSGGLIAIDHEGNVALPFNTEGMYRAWGYAGDTPTTGIYREKGDTVATQ
notes: EcAIII of Escherichia coli, α subunit: cut product up to the scissile bond Gly178-Thr179; residues 158-178 not visible in the structure; EcAIII of Escherichia coli, β subunit beginning at Thr179, with the substitutions of RDM1-24; source: E. coli BL21 Gold, purified (DEAE-Sepharose, SEC); copies: 2 + 2
As for B9, in data set [2], the binding result is “binds”.
